Assay: soluble fraction after stress (log2 fold change); higher = more stays soluble; pooled small domains, quantitative proteomics
Conditions: stress: 75 degC
For “HMNMTDVLVVNQTVRGGTQITESMLSVKKVDKSSLPDNYLKASLKDEVVGKYFDLGLTSGGVLTKDNISVS”, the “soluble fraction (log2)” value was -0.154.
In the case of “HMNMVSGHLQIKKGYYYVVLSYYDNRNKRHVKYVSTGLPEKGNKRKAEAALARVRSEFEPPQE”, the “soluble fraction (log2)” value is reported as -3.95.
With “HMNNDFIVKSTDSHKVNLRSQPDTHADIIKRLDDHTIVEKLKTVRKNWYLVQLKDTTTQGYVHKSQLERV” the “soluble fraction (log2)” value was -0.357.
For “HMNNDFVERLRKLFGHASMAEIARRIDVPHATIRNYFQGRLPAPEVLIKLARETGVSLNWLLTGEGKMFA”, the “soluble fraction (log2)” value was -1.19.
For “HMNNENELSSIISKVLEENPAEKERFLNGEKKLAGFFMGKIMKATKGTADPKKAAQLLNEIL”, the “soluble fraction (log2)” value was 0.311.
With “HMNNFNVVVGKAIKNSFNTRENYITINAGKVLGIKTDMGVINDKGIVGIVEKTSKDFATIQSVLNIKS” the “soluble fraction (log2)” value was 0.177.
For “HMNNGTDGLTTRLRRAILAGQYTFKERLPSERQLAEHFNTSRGTVRKVLQRLTTMNLVEQRAGSGTYVRYG”, the “soluble fraction (log2)” value was -0.302.
With “HMNNIGSKIKSAKILNNLDDNQLSEITGIDKLQLRSIQDGQVNPTKMELEIISKALKLPTNYFTK” the “soluble fraction (log2)” value was -0.115.
In the case of “HMNNIIYLIANKLDVGKRLDQFITIRTEFSRQRVINLIEDGYVKLNNKIINLKKYKIKGDEKIEITIPEIR”, the “soluble fraction (log2)” value is reported as -1.32.
For “HMNNKVAVKSGYYFEIFNKEEIPTTLAKTKQKVKINNIQYDLYQGMSLDDERKIDDMFGDRMGYSIDDY”, the “soluble fraction (log2)” value was -1.07.
For “HMNNKVAVKSGYYFELFDKDEIPATLEKMKQKVKIDNIKYDLYQGTSLEDERKIDTMFGEKMGYSIDDYI”, the “soluble fraction (log2)” value was -0.0968.
For “HMNNLVTRREVEILGWIKEGKTTSDIAGILSLSPFTVKNHVQNILKKLGARSRSHAVAQAINLGLLH”, the “soluble fraction (log2)” value was -1.4.
In the case of “HMNNPISMQKLRQVIRLYGQGKGTKSINSMLGVSRNTIKKYLQVYHSSGINYESFLAMSDKELSAVFLV”, the “soluble fraction (log2)” value is reported as -0.509.
With “HMNNQVTFSKFLNEVEDGRVVEVNIQGNNITGVLSDGSKFKTFSPNYPNLVEKLSEKGVSINASPL” the “soluble fraction (log2)” value was 0.0934.
For “HMNNTIKFSVDENNSGKRLDVYLTENINHLTRSFLKKLIEKEQVKLNKKVLTSPATKVKTKDQITINIIE”, the “soluble fraction (log2)” value was 0.0625.
In the case of “HMNNWYESSIKSLVEEYFREHGFSVVFDSSEFWDVFIEKYHKQIPSSQIALFDQVAAEARSYAFNKK”, the “soluble fraction (log2)” value is reported as -0.0798.
In the case of “HMNPETLTNGSVVKMSKANLSDELIIDMINNSPARFDLSSGALRSLEGEGVSKAVIESMKRATSG”, the “soluble fraction (log2)” value is reported as 0.283.
In the case of “HMNPETLTNSSVIKMSKANLSDELITDMILNSPVKFDLSAGAIKTLESEGVTPAVLESMKNAASK”, the “soluble fraction (log2)” value is reported as 0.131.
With “HMNPFTHEEINLMSIYNAAGTREGLIAALTEMWGYLDAEETELRELADSALAKLRGITDAEYAALELE” the “soluble fraction (log2)” value was -1.19.
For “HMNPGAYQVKAGEGLIGLSRRYNVPVDVLASVNNLNTTSSLRVGQTITIPTAAQVNRITQQAQ”, the “soluble fraction (log2)” value was 0.216.
With “HMNPGHAERGKEIVEVFLRNNGELSMREIAEKSNITITQARRRVNKLLDQGIVEATAPVQSRNRKYRIK” the “soluble fraction (log2)” value was 0.186.
In the case of “HMNPIEAQIEELKNKDQKTAYQALKHLLAISETRAEVSYYFDRFVALLQDPQSYVRTRGLLLIGA”, the “soluble fraction (log2)” value is reported as 0.584.
In the case of “HMNPLLSAYLAEVERGLQGLTAGRRRLVLRELEAHLLDEAEARGLLTEEDMRALLMEKEPPERLAQEIAQ”, the “soluble fraction (log2)” value is reported as -0.253.
With “HMNPMLEPAGEIRLSDGVLLRWQSERLPGDDTVRGPGSLYELGLYRVKVRVSAPQQGVRESSVELAGWRQV” the “soluble fraction (log2)” value was -0.0501.
In the case of “HMNPMRYLVVPSQETETWKEYLVSKEWLERKYRIETEGDNRAIPLSNLFPKIVPIELSNLEIIEKEAFS”, the “soluble fraction (log2)” value is reported as -0.694.
For “HMNPNEVQIPDLVNKTEDEAEQILKDLKLKLVVKSEEYNENIEKGKIISQDPPYQENYTIKEHSEISIVIS”, the “soluble fraction (log2)” value was 0.335.
For “HMNPSRPASKEELLGLFEHLERALDAVTFFRPAEKKPVVVQTLRAMLTKASFTEQDIRTMRGVIAALEN”, the “soluble fraction (log2)” value was -1.59.
For “HMNPYQDSILLWKSFDTPLTNEDFMGLSKEELRIARNEIYAAYGRIFTSQDLIDYFNSKPWYQGTTPA”, the “soluble fraction (log2)” value was -0.313.
In the case of “HMNQDQDLSRIKGIGPEMVDRLHAQGVETLEQIAAMQMEQLKKLDQQISGNGKAVREQWAEQAKQLLTT”, the “soluble fraction (log2)” value is reported as 0.099.
For “HMNQEFRMPNAIKGVELSEENKQQLTQGEKVFLEGMTSAKGSLFDAYVYIDQEKKTLAFDFPEK”, the “soluble fraction (log2)” value was 0.0813.
In the case of “HMNQKTQMTKQILAESLKKLMLHHSFEKITIKDITDAAGFIRPTFYNHFKDKYDLVEWIFTEEI”, the “soluble fraction (log2)” value is reported as -0.287.
With “HMNQKVRQLLSQAQAEMERKNYKQAIKLLDQALAIEPHSGELHFMKGYAWMSMGEFEKALESLYEARNYA” the “soluble fraction (log2)” value was -1.4.
For “HMNQPRQRKVIFELIDERNALERVLMHFAHLEKQVEKIDERKYQVTLYYDKEDETEILIRVLSFG”, the “soluble fraction (log2)” value was -2.01.
In the case of “HMNQTEKSKITHNELLKAAHSLFIEQGFNHTTITDIVTRAGYSTGIFYKHYKTKTDILVELWTNYIE”, the “soluble fraction (log2)” value is reported as -2.27.
With “HMNQWQLLSEDGAILGTRVLYHPHETEQPFTRSLSGVKIPAHVQSVTIRAGDLVHGFGGREIQMQLPPIV” the “soluble fraction (log2)” value was -0.0313.
With “HMNREENIQIGRDLLERELRKQGMDLQENLRQEVLLDGAKKLGFNNTDDLLAAIGDLKVTPAMFIGKIA” the “soluble fraction (log2)” value was 0.0484.
For “HMNREMLVHAIGQLKEKYASALELKYWHGFTEREIAAFLNISEKAANSRLVRGRVMLRKLLE”, the “soluble fraction (log2)” value was 0.0264.
In the case of “HMNREYELTAEESGQRLDKYLAGEMTDLSRSRIKELVQAGEILVNGKKSKVSYKVQKDDLIQVIVLPLE”, the “soluble fraction (log2)” value is reported as -0.402.
In the case of “HMNRITEFVVPEGTKKIRADKLLAESFPDHSRSDFHRAFDASLVRLEGQPISKNRKISQGDVLVFEMPEI”, the “soluble fraction (log2)” value is reported as 0.505.
In the case of “HMNRPQDLGEPYDGQFREHPEAWAFYAAQSPSYRRSASWWVLGAKQEVTRQRRLAALIDASAQGTRIPALT”, the “soluble fraction (log2)” value is reported as -1.8.
For “HMNRREFQFSEGSSNKFWSIELRDQSFIVHYGKIGTNGQAQEKTFATADAAKKEHDKLIAEKTKKGYVEVQ”, the “soluble fraction (log2)” value was -0.34.
With “HMNRTKYYDFEGHPAKVVRLTLPVYLNKIGDEVVVYDSQKFAREASPISESQYNRMVAEIFQP” the “soluble fraction (log2)” value was -0.233.
For “HMNSEAVQNVIDKISALPDDITAKAKSQIEEARAAYEALSDSEKARVTNYSTLVAAEKKLASVVKD”, the “soluble fraction (log2)” value was 0.558.
With “HMNSEERVLDTASKWLVKLDEGLDESEAQVLKVWLATPLHRDTFLEMVALWDKMSVLNELADIV” the “soluble fraction (log2)” value was -1.65.
In the case of “HMNSISDSELKALIKNNYLKFLKRIASDEEIEYHFNQIKNKTILLDELDSIFQNSQEYKDLVEHNNKIQN”, the “soluble fraction (log2)” value is reported as -0.268.
For “HMNSKQELAYQTIRARIVDGSYGPGYRIVIDEVARELGVSPIPVREAVRRLEAEGLITYTRHAGARVVA”, the “soluble fraction (log2)” value was -0.219.
In the case of “HMNSLQLGSRGPTVSALQAKLNTMLVPSPRLVADGSFGPKTAQAVKAFQQMKRLVADGVVGPKTAAALGLS”, the “soluble fraction (log2)” value is reported as -0.156.
With “HMNSLQNNLKQARTRVGLTQGVLASQAGISRQAYSTLESGSANPSTEVALRLAQALQERVELLFYLPER” the “soluble fraction (log2)” value was -0.948.
In the case of “HMNSNKFANAAAVAVAEKPADSYNPLFIYGPSGVGKTHLLYAIANEIHKHHPDYNIVYIKGDQFTNELIN”, the “soluble fraction (log2)” value is reported as 0.088.
With “HMNSNLSLTSYEEKIFFLLEKEKNLDELILESSFKAGEILSILMDLEIKHAIVSIPGGKYRRK” the “soluble fraction (log2)” value was -3.85.

Source: the domain aggregation screens of Martell et al. (2025)
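Further: 20 min heating vs room temperature control held 20 min.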
